Experimental data published in patent US7812117B2, “Vasostatin as marrow protectant” (The United States of America as represented by the …, priority 1998, dated 2010).
Like-named read-outs stand apart in the source and are kept apart here.

B1: vaso: N-terminal domain of calreticulin (amino acids 1-180, SEQ ID NO:3); given as fusion protein with maltose binding protein, MBP-vaso (protein)
chain: EPAVYFKEQFLDGDGWTSRWIESKHKSDFGKFVLSSGKFYGDEEKDKGLQTSQDARFYALSASFEPFSNKGQTLVVQFTVKHEQNIDCGGGYVKLFPNSLDQTDMHGDSEYNIMFGPDICGPGTKKVHVIFNYKGKNVLINKDIRCKDDEFTHLYTLIVRPDNTYEVKIDNSQVESGSLE
modifications: Vasostatin

Legend:
bone marrow cells [1] = system: bone marrow cells
Description: FIG. 2 is set of bar graphs showing of the effects of vaso on cytoxan-induced bone marrow toxicity evaluated by bone marrow cell counting. Bone marrow cells obtained from the femurs of mice treated with cytoxan alone or with vaso were counted. FIG. 2A is a bar graph of bone marrow cell counts 5 days after the injection of cytoxan (1 or 2 mg/mouse) alone or with vaso (300 μg/mouse/day). FIG. 2B is a bar graph of the bone marrow cell counts on days 3 and 5 after treatment with cytoxan (2 mg/mouse) alone or with vaso ([…]).
C57BL6J mice (7 weeks of age) were first treated for 7 days daily with either buffer (100 μl s.c.) or vaso (300 μg/mouse in 100 μl of buffer s.c.). On day 8, groups of mice (n=6) pretreated with either buffer or vaso were injected with cyclophosphamide (1.0 or 2.0 mg/mouse) and continued on daily inoculations of buffer (100 μl s.c.) or vaso (300 μg/mouse in 100 μl of buffer s.c.). Additional control mice were treated with only buffer or vaso for 5 additional days. On days 3 and 5 after cyclophosphamide injection, ½ of the mice were killed for evaluation of the bone marrow and peripheral blood.

bone marrow cells [2] = system: bone marrow cells; remark: listed apart in the source
Description: Groups of C57BL/6 mice (8 weeks of age) were treated as described in FIG. 14. FIG. 4A is a bar graph of the bone marrow cell count from mice treated for 16 days with either buffer alone (PBS, 100 μl/mouse/day s.c), Vaso (300 μg/mouse/day s.c) alone, Cytoxan (500 μg/mouse/day i.p.) alone, or vaso (300 μg/mouse/day s.c) plus Cytoxan (500 μg/mouse/day i.p.). Bone marrow was harvested on days 9 and 17 and the number of nucleated cells were counted. FIG. 4B is a bar graph of the bone marrow cell count from mice treated with for 11 days with either buffer alone (PBS, 100 μl/mouse/day s.c), Vaso (300 μg/mouse/day s.c) alone, Cytoxan (250 μg/mouse/day i.p.)×11 days plus Cytoxan 2 mg/mouse i.p. on day 11, or Cytoxan ([…] s.c, days 1-16). Bone marrow cell counts were obtained on day 17. FIG. 4C is a bar graph of peripheral blood white cells counts (WBC) on day 17 from mice from the same treatment groups described in B. […]
In addition, rather than treating the mice with vaso prior to toxin exposure as described above, mice were simultaneously inoculated with cyclophosphamide and vaso. Thus, groups of mice (n=6) received either buffer alone (100 μl s.c) daily for 16 days, vaso (300 μg/mouse s.c) alone daily for 16 days, cyclophosphamide (500 μg/mouse i.p.) either alone or together with vaso (300 μg/mouse s.c) for 16 days. Other groups of mice (n=6) were inoculated daily for 11 days with cyclophosphamide (250 μg/mouse i.p.) either alone or together with vaso (300 μg/mouse s.c).

[3] = system: CD34- mononuclear cell population; test: Proliferation of negatively selected human CD34- mononuclear cells; format: cell-based; conditions: Stem Cell Factor and Flt-3 ligand alone or in conjunction with vaso
Description: The purified human CD34+ cells along with the negatively selected CD34− mononuclear cell population were cultured in RPMI 1640 medium containing 15% FBS. Human Stem Cell Factor (300 ng/ml) and Flt-3 ligand (300 ng/ml) were added to the culture medium. […] Thus, purified hematopoietic cells from both mouse and man proliferate in response to vaso.

[4] = system: peripheral white blood cells; test: Peripheral white blood cell counts after total body irradiation of C57BL/6N mice; format: in vivo; conditions: vaso 300 μg/mouse/day s.c.
Description: In a subsequent experiment, groups of 8 week old C57BL/6N mice were irradiated with either 300 or 400 rad total body irradiation and treated the mice daily with s.c. inoculations of either buffer of vaso (300 μg/mouse/day). Peripheral white blood cell counts were obtained on days 5 and 9 post irradiation. On day 5, the total white cell count in the mice that had received 300 rad total body irradiation and had been treated with buffer was 1.2×10^3/mm^3 as opposed to 2.14×10^3/mm^3 in the mice treated with vaso. Also on day 5 post-irradiation, the total white cell count in the mice that had received 400 rad total body irradiation and had been treated with buffer was 0.66×10^3/mm^3 as opposed to 1.22×10^3/mm^3 in the mice treated with vaso. On day 9 post irradiation, the total white cell count in the mice that had received 400 rad total body irradiation and had been treated with buffer was 0.79×10^3/mm^3 as opposed to 1.37×10^3/mm^3 in the mice treated with vaso.

[5] = system: bone marrow hematopoietic cells; test: Radiation-induced toxicity in irradiated tumor-bearing BALB/c nu/nu mice (appearance, femural bone marrow histology); format: in vivo, mouse
Description: This healthier appearance was due, in part, to the larger weight of mice treated with vaso compared to the controls.
To examine this further, 7 week old BALB/c nu/nu mice were first irradiated with 400 rad. After 24 hr, the mice were incoculated s.c. with the human Burkitt lymphoma cell line CA46. One group of mice (n=12) was treated s.c. with the control protein maltose binding protein (MBP, 40 μg/mouse/day), whereas another group (n=12) was treated s.c. with MBP-vaso (60 μg/mouse/day). Some of the mice from each group were killed on day 15, whereas the other mice were kept for up to 2.5 months.

[6] = system: fetal bovine heart endothelial cells (FBHEC); conditions: as previously reported (Pike et al., 1998; 1999); cited from earlier work

Molecule | bone marrow cellularity 5 days after cyclophosphamide (bone marrow cells [1]; cyclophosphamide 2 mg/mouse alone, vs control untreated mice) | marrow cell counts 5 days after cyclophosphamide (bone marrow cells [1]; cyclophosphamide 1.0 or 2.0 mg/mouse, alone) | bone marrow cell counts on day 17 (bone marrow cells [2]; cyclophosphamide 250 μg/mouse daily for 11 days then single 2 mg/mouse injection on day 12, alone) | bone marrow cell counts on day 9 (bone marrow cells [2]; cytoxan 500 μg/mouse/day i.p. alone, vs PBS controls) | bone marrow cell counts on day 17 (bone marrow cells [2]; cytoxan 500 μg/mouse/day i.p. for 16 days alone, vs PBS controls) | bone marrow cellularity 5 days after cyclophosphamide (bone marrow cells [1]; cyclophosphamide 2 mg/mouse in conjunction with vasostatin) | nadir in bone marrow counts on day 3 after cyclophosphamide (bone marrow cells [1]; cyclophosphamide 2 mg/mouse with vaso 300 μg/mouse/day) | bone marrow cell counts 5 days after cyclophosphamide (bone marrow cells [1]; cyclophosphamide 1.0 or 2.0 mg/mouse together with vaso 300 μg/mouse/day s.c.) | proliferation of CD34- cell population [3] | total white cell count, day 5 post irradiation ([4]; 300 rad total body irradiation, buffer 1.2×10^3) | total white cell count, day 5 post irradiation ([4]; 400 rad total body irradiation, buffer 0.66×10^3) | total white cell count, day 9 post irradiation ([4]; 400 rad total body irradiation, buffer 0.79×10^3) | bone marrow cell counts on day 17 (bone marrow cells [2]; Vaso 300 μg/mouse/day s.c. for 16 days with cyclophosphamide 250 μg/mouse daily for 11 days then 2 mg/mouse on day 12) | bone marrow cell count on days 9 and 17 (bone marrow cells [2]; cyclophosphamide 500 μg/mouse/day i.p. plus vasostatin 300 μg/mouse/day s.c.) | appearance of irradiated mice ([5]; BALB/c nu/nu mice, 400-450 rad, injected s.c. with human tumor cell lines, vs buffer control) | femural bone marrow histology after 400 rad total body irradiation ([5]; MBP 40 μg/mouse/day or MBP-vaso 60 μg/mouse/day s.c. after irradiation) | proliferation of primary cultures of FBHEC [6]
O=P1(N(CCCl)CCCl)NCCCO1 (centres unmarked) [cyclophosphamide, reference compound] | clear reduction in cellularity | reduced significantly marrow cell counts | considerable reduction of bone marrow cell counts | did not reduce bone marrow cell counts on day 9 | reduced them on day 17 | – | – | – | – | – | – | – | – | – | – | – | –
B1 | – | – | – | – | – | indistinguishable from that of control mice | reduced the severity of this nadir | the reduction in bone marrow cell counts was minimal | proliferated minimally | 2.14×10^3 /mm^3 | 1.22×10^3 /mm^3 | 1.37×10^3 /mm^3 | prevented the occurrence of a reduction in bone marrow cell counts | higher than in the control mice and in the mice treated with cytoxan | appeared healthier | can protect the hematopoietic tissue from radiation-induced toxicity | consistently inhibited the proliferation
